Results taken from patent US20220098635A1.
Read-outs that look alike come from different tables or passages of the source.

Experiments:
[1] = target: RGD peptide (cyclo(Arg-Gly-Asp-D-Phe-Cys)); assay: STM junction, bare probe (NA), RGD peptide on substrate only, gap Z0 + 2 nm
[2] = target: RGD peptide (cyclo(Arg-Gly-Asp-D-Phe-Cys))
[3] = target: RGD peptide (cyclo(Arg-Gly-Asp-D-Phe-Cys)); remark: listed apart in the source
[4] = target: RGD peptide (cyclo(Arg-Gly-Asp-D-Phe-Cys)); assay: cell-based or functional assay
[5] = target: RGD peptide (cyclo(Arg-Gly-Asp-D-Phe-Cys)); remark: listed apart in the source
[6] = target: RGD peptide (cyclo(Arg-Gly-Asp-D-Phe-Cys)); assay: method not stated

Chain of αVβ3 Integrin (receptor) (P06756 31-992): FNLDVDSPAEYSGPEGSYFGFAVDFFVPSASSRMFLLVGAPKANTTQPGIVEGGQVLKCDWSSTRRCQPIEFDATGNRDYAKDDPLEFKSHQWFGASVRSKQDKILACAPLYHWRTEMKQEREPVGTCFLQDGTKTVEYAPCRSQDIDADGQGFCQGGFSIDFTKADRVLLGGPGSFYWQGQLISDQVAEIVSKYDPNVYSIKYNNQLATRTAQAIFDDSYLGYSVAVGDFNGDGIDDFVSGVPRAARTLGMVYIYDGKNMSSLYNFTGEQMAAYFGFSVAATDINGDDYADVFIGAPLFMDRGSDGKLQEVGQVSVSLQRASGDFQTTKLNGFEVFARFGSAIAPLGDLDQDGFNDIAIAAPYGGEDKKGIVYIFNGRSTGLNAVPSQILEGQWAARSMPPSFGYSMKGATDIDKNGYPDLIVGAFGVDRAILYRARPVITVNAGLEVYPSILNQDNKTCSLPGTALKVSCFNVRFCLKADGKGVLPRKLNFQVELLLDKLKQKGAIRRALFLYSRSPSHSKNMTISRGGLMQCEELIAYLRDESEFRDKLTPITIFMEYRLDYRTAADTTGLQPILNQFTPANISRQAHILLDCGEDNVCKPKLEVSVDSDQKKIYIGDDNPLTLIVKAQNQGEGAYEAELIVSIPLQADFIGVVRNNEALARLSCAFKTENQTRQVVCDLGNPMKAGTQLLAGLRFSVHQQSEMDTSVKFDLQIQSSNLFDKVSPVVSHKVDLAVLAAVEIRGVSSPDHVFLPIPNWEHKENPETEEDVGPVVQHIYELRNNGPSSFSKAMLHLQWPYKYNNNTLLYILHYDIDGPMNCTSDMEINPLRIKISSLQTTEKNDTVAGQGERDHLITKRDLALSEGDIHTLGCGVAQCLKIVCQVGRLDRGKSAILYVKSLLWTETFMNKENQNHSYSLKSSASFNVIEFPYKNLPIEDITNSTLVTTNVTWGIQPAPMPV
Chain of αVβ3 Integrin (receptor) (P05106 27-718, further chain): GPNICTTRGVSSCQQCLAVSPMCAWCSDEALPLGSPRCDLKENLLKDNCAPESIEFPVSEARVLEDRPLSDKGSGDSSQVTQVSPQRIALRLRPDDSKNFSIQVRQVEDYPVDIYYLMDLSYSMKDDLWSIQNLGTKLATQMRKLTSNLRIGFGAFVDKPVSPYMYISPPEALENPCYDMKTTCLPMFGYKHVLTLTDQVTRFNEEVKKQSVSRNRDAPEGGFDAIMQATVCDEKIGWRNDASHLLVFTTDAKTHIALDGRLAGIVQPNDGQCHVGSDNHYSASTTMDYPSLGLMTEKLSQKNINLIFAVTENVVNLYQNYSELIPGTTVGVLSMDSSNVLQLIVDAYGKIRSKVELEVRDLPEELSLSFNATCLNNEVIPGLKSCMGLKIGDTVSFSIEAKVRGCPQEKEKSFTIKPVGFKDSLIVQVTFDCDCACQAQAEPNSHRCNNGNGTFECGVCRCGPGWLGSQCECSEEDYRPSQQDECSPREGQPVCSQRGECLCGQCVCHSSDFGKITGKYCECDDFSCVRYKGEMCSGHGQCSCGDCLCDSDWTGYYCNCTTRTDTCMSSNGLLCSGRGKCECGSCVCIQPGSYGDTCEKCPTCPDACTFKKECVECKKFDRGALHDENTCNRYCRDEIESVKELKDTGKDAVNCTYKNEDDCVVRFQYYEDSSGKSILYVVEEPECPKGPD

For αVβ3 Integrin (receptor), the Frequency with which sweeps yielded an IV curve [1] was 0%, the Frequency with which sweeps yielded an IV curve [2] was 10.5% and the Frequency with which sweeps yielded an IV curve [3] was 35.9%. The Peak Conductance (nS), Binding Mode NS-S [4] was 0.38 nS, the Frequency with which sweeps yielded an IV curve [5] was 23.7% and the Kd [6] was 10 nM.
